Experimental data reported in paper PMC11514449.
Like-named read-outs stand apart in the source and are kept apart here.

Tests used:
[1] = target: T1, Dmc1 (Saccharomyces cerevisiae) (UniProt P25453); assay: smFRET, RPA displacement; settings: internal Cy3 between T12 and T18
T1 sequence: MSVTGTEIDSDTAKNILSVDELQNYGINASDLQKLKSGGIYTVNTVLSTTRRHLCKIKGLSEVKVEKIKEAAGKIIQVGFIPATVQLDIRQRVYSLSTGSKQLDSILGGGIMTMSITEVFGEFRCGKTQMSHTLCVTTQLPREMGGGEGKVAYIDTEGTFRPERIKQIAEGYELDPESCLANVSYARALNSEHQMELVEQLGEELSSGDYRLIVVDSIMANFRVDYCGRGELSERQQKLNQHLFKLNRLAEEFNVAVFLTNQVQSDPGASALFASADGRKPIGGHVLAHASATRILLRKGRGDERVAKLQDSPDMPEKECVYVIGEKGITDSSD

[2] = target: T2, Dmc1;Mei5-Sae3 complex (Saccharomyces cerevisiae;Saccharomyces cerevisiae) (UniProt P25453+P32489+P89114); assay: smFRET + GFP colocalization; settings: internal Cy3 between T12 and T21
T2 sequence 1: T1 sequence
T2 sequence 2: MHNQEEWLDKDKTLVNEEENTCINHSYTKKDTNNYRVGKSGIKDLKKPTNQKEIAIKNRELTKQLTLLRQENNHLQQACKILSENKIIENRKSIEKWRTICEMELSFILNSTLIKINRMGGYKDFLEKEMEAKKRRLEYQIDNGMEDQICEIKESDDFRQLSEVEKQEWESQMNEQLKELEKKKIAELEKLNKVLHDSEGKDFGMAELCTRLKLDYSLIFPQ
T2 sequence 3: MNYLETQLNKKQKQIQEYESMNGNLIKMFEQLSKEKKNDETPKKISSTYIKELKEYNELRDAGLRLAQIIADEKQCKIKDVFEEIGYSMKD

Dmc1 [3] = target: T3, Dmc1 (Saccharomyces cerevisiae, UniProt P25453 1-334); assay: smFRET
T3 sequence: T1 sequence

RPA [4] = target: T4, RPA (Saccharomyces cerevisiae, UniProt P22336;P26754;P26755 1-621;1-273;1-122); assay: smFRET
Dmc1;Mei5-Sae3 complex [5] = target: T5, Dmc1;Mei5-Sae3 complex (Saccharomyces cerevisiae;Saccharomyces …, UniProt P25453;P32489;P89114 1-334;1-222;1-91, |); assay: nuclease protection
T5 sequence 1: T1 sequence
T5 sequence 2: T2 sequence 2
T5 sequence 3: T2 sequence 3

RPA-GFP (Rfa2-eGFP) = RPA-GFP (Rfa2-eGFP) (Saccharomyces cerevisiae, UniProt P22336;P26754;P26755 1-621;1-273;1-122); assay: EMSA
RPA [6] = target: T4, RPA; assay: EMSA
Dmc1;Mei5-Sae3 complex [7] = target: T5, Dmc1;Mei5-Sae3 complex; assay: smFRET
Dmc1 [8] = target: T3, Dmc1; assay: smFRET; remark: listed apart in the source

T4 sequence (P22336 whole entry, chain 1 of 3): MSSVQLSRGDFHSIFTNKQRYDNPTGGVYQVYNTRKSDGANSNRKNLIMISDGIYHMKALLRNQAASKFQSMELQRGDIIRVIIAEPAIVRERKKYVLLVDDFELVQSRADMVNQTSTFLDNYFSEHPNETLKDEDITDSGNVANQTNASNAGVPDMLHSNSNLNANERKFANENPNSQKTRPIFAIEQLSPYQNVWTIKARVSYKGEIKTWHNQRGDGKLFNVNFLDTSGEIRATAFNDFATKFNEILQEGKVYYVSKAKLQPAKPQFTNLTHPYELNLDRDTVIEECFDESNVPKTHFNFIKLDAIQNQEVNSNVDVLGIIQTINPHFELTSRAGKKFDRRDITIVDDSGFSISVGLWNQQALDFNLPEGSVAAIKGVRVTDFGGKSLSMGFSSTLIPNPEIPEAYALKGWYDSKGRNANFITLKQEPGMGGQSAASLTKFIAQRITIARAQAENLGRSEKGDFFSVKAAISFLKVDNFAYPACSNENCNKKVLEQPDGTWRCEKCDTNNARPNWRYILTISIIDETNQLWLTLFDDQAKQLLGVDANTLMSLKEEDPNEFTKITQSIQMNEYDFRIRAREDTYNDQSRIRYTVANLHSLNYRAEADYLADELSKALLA
T4 sequence (P26754 whole entry, chain 2 of 3): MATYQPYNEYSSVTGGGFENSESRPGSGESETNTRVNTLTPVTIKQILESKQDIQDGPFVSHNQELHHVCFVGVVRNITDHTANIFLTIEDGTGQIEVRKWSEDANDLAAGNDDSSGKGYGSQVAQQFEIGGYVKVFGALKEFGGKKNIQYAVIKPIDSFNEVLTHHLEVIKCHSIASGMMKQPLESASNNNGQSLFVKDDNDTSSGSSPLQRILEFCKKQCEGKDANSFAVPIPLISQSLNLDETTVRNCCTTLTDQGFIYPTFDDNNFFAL
T4 sequence (P26755 whole entry, chain 3 of 3): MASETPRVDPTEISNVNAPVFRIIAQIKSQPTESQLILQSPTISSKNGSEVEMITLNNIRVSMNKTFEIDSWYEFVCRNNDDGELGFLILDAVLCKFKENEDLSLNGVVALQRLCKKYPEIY
RPA-GFP (Rfa2-eGFP), sequence (P22336 whole entry, chain 1 of 3): as the sequence (P22336 whole entry, chain 1 of 3) above
RPA-GFP (Rfa2-eGFP), sequence (P26754 whole entry, chain 2 of 3): as the sequence (P26754 whole entry, chain 2 of 3) above
RPA-GFP (Rfa2-eGFP), sequence (P26755 whole entry, chain 3 of 3): as the sequence (P26755 whole entry, chain 3 of 3) above

With “TGGCGACGGCAGCGAGGCTTTTTTTTTTTTTTTTTTTTTTTTTTTTTT / GCCTCGCTGCCGTCGCCA [dT12+18]” the Kd [1] was 1900 nM.

In the case of “TGGCGACGGCAGCGAGGCTTTTTTTTTTTTTTTTTTTTTTTTTTTTTTTTT / GCCTCGCTGCCGTCGCCA [dT12+21]”, the binding signal (% RPA displaced) [2] is reported as 50.

B1: dT9 (mixed)
DNA 1: TGGCGAGCAGCGAGGCTTTTTTTTT
DNA 2: GCCTCGCTGCCGTCGCCA
With B1 the Kd (Dmc1 [3]) was 1400 ± 39 nM and the binding result (RPA [4]) was “binds”.

B2: Oligo 1 (80-mer) (ssDNA)
DNA: TTATGTTCATTTTTTATATCCTTTACTTTATTTTCTCTGTTTATTCATTTACTTATTTTGTATTATCCTTATCTTATTTA
B2: binds (Dmc1;Mei5-Sae3 complex [5]).

B3: Oligo 4 (90-mer) (ssDNA)
DNA: AAATCAATCTAAAGTATATATGAGTAAACTTGGTCTGACAGTTACCAATGCTTAATCAGTGAGGCACCTATCTCAGCGATCTGTCTATTT
B3: binds (RPA-GFP (Rfa2-eGFP)); binds (RPA [6]).

B4: dT13 (mixed)
DNA 1: TGGCGACGGCAGCGAGGCTTTTTTTTTTTTT
DNA 2: GCCTCGCTGCCGTCGCCA
B4: binds (Dmc1;Mei5-Sae3 complex [7]).

B5: dT7 (mixed)
DNA 1: TGGCGACGCAGCGAGGCTTTTTTT
DNA 2: GCCTCGCTGCCGTCGCCA
Molecule B5 has a Kd (Dmc1 [8]) of 1720 ± 77 nM.
